According to patent US10961297 (SANFORD BURNHAM PREBYS MEDICAL DISCOVERY INSTITUTE, dated 2021):
Numbering of substitutions follows the chain as printed. Names and notes keep the numbering of the source.

Columns and labels:
human BTLA-Fc (human) [1] = molecular target: human BTLA-Fc (human) (UniProt Q7Z6A9); test: SPR, human BTLA-Fc immobilised, Fc fusion as analyte, monovalent (1:1) analysis
human BTLA-Fc (human) [2] = molecular target: human BTLA-Fc (human) (UniProt Q7Z6A9); test: SPR, human BTLA-Fc immobilised, Fc fusion as analyte, bivalent analysis
human BTLA-Fc (human) [3] = molecular target: human BTLA-Fc (human) (UniProt Q7Z6A9); test: SPR, human BTLA-Fc immobilised, Fc fusion as analyte, monovalent analysis
[4] = molecular target: T1, human HVEM T82P mutant on 293T cells (human, UniProt Q92956 39-283); test: flow cytometry, LIGHT on 293T cells with mutant HVEM
T1 construct: also called Thr^82
T1 sequence: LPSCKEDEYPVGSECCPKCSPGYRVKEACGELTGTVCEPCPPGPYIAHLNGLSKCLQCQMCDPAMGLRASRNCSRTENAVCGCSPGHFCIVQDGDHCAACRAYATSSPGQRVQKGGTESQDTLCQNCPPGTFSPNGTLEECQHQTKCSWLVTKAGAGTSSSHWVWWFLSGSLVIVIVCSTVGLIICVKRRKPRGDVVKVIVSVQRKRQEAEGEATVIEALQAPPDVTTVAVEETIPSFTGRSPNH

[5] = molecular target: T2, human HVEM G60D mutant on 293T cells (human, UniProt Q92956 39-283); test: as above
T2 construct: also called Gly^60
T2 sequence: T1 sequence with G22D, P44T

[6] = molecular target: T3, human BTLA R42D mutant on EL4 cells (human, UniProt Q7Z6A9 31-289); test: flow cytometry, EL4 cells transduced with mutant human BTLA, HVEM-Fc then anti-human Fc [panel B]
T3 construct: whole, on cells; also called Arg42

[7] = molecular target: T4, human BTLA H127D mutant on EL4 cells (human, UniProt Q7Z6A9 31-289); test: as above
T4 construct: whole, on cells; also called His127

[8] = molecular target: T5, human BTLA P59A mutant on EL4 cells (human, UniProt Q7Z6A9 31-289); test: as above
T5 construct: whole, on cells; also called Pro59

[9] = molecular target: T6, human BTLA Q37A mutant on EL4 cells (human, UniProt Q7Z6A9 31-289); test: as above
T6 construct: whole, on cells; also called Gln37

[10] = molecular target: T7, BTLA (form in the assay not stated) (UniProt Q7Z6A9 31-157); test: not told
T7 sequence: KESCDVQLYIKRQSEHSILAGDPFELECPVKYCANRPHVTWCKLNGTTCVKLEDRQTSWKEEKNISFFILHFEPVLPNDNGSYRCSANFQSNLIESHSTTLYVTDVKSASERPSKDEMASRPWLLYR

[11] = molecular target: T8, human HVEM R109W mutant on 293T cells (human, UniProt Q92956 39-283); test: flow cytometry, CD160-Fc on 293T cells with mutant HVEM
T8 construct: also called Arg^109
T8 sequence: T1 sequence with P44T, R71W

[12] = molecular target: T9, human HVEM Y61C mutant on 293T cells (human, UniProt Q92956 39-283); test: as above
T9 construct: also called Tyr^61
T9 sequence: T1 sequence with Y23C, P44T

[13] = molecular target: T1, human HVEM T82P mutant on 293T cells; test: as above
[14] = molecular target: T10, human HVEM A102P mutant on 293T cells (human, UniProt Q92956 39-283); test: as above
T10 construct: also called Ala^102
T10 sequence: T1 sequence with P44T, A64P

[15] = molecular target: T2, human HVEM G60D mutant on 293T cells; test: as above
[16] = molecular target: T11, human HVEM P59S mutant on 293T cells (human, UniProt Q92956 39-283); test: as above
T11 construct: also called Pro^59
T11 sequence: T1 sequence with P21S, P44T

[17] = molecular target: T12, human HVEM G72D mutant on 293T cells (human, UniProt Q92956 39-283); test: as above
T12 construct: also called Gly^72
T12 sequence: T1 sequence with G34D, P44T

[18] = molecular target: T13, wild-type human BTLA on cells (human, UniProt Q7Z6A9 31-289); test: co-expression on 293T cells, loss of staining by Fc ligands in trans
T13 construct: whole, on cells

human BTLA-Fc (human), sequence (Q7Z6A9 26-150 limits assumed): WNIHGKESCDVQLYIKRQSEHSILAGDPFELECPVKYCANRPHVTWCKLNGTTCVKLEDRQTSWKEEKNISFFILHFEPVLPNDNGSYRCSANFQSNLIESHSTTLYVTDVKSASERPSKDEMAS

Question: Which results are given for “human HVEM-Fc (from UniProt Q92956 39-184) (Fc fusion)”?
Answer: Kd (human BTLA-Fc (human) [1]): 177 nM; ka1 (human BTLA-Fc (human) [2]): 15300 M⁻¹ s⁻¹; ka2 (human BTLA-Fc (human) [2]): 0.0573 M⁻¹ s⁻¹; kd1 (human BTLA-Fc (human) [2]): 0.00902 s⁻¹; kd2 (human BTLA-Fc (human) [2]): 2.05 s⁻¹; koff (human BTLA-Fc (human) [3]): 0.0066 s⁻¹; kon (human BTLA-Fc (human) [3]): 37400 M⁻¹ s⁻¹

Question: For human CMV UL144-Fc (Fc fusion), which Kd (human BTLA-Fc (human) [1]) is on record?
Answer: 295 nM

Question: What about the ka1 (human BTLA-Fc (human) [2]) of the same molecule?
Answer: 7810 M⁻¹ s⁻¹

Question: And the ka2 (human BTLA-Fc (human) [2])?
Answer: 1.39e-05

Question: What about the kd1 (human BTLA-Fc (human) [2]) of the same molecule?
Answer: 0.0051 s⁻¹

Question: What about the kd2 (human BTLA-Fc (human) [2]) of the same molecule?
Answer: 0.00289 s⁻¹

Question: What about the koff (human BTLA-Fc (human) [3]) of the same molecule?
Answer: 0.00476 s⁻¹

Question: And the kon (human BTLA-Fc (human) [3])?
Answer: 16100 M⁻¹ s⁻¹

B1: LIGHT (ligand)
chain: DGPAGSWEQLIQERRSHEVNPAAHLTGANSSLTGSGGPLLWETQLGLAFLRGLSYHDGALVVTKAGYYYIYSKVQLGGVGCPLGLASTITHGLYKRTPRYPEELELLVSQQSPCGRATSSSRVWWDSSFLGGVVHLEAGEKVVVRVLDERLVRLRDGTRSYFGAFMV
notes: also called TNFSF ligand LIGHT
Question: What does the source list for B1?
Answer: binding result [4]: no binding; binding result [5]: no binding

B2: human HVEM-Fc (Fc fusion)
chain: LPSCKEDEYPVGSECCPKCSPGYRVKEACGELTGTVCEPCPPGTYIAHLNGLSKCLQCQMCDPAMGLRASRNCSRTENAVCGCSPGHFCIVQDGDHCAACRAYATSSPGQRVQKGGTESQDTLCQNCPPGTFSPNGTLEECQHQTK
notes: also called parental HVEM-Fc; not shown: human IgG Fc region
Question: Does B2 bind [6]?
Answer: no binding

Question: Does B2 bind [7]?
Answer: no binding

Question: Does B2 bind [8]?
Answer: no binding

Question: Does B2 bind [9]?
Answer: no binding

B3: HVEM-RTWA (HVEM-Fc mutein with S58R, G68T, L70W and L90A) (Fc fusion)
chain: B2 chain with S20R, G30T, L32W, L52A
notes: also called RTWA mutant; HVEM^RTWA Fc; not shown: human IgG Fc region
Question: How did the “fold enhancement of BTLA affinity (against HVEM-RA)” value [10] turn out when B3 was run?
Answer: 10 fold

B4: CD160-Fc (Fc fusion)
chain: INITSSASQEGTRLNLICTVWHKKEEAEGFVVFLCKDRSGDCSPETSLKQLRLKRDPGIDGVGEISSQLMFTISQVTPLHSGTYQCCARSQKSGIRLQGHFFSILFTETGNYTVTGLKQRQHLEFSHNEGTLS
Question: What does the source list for B4?
Answer: binding result [11]: no binding; binding result [12]: no binding; binding result [13]: no binding; binding result [14]: no binding; binding result [15]: no binding; binding result [16]: no binding; binding result [17]: no binding

B5: wild-type human HVEM on 293T cells (receptor)
chain: T1 sequence with P44T
notes: also called TNFRSF14
Question: Does B5 bind [18]?
Answer: binds
